Values quoted from earlier work, collected in paper PMC3135726.

Experiments:
[1] = biological target: Snurportin1 IBB (Homo sapiens) (UniProt O95149)
PTHrP (Homo sapiens) = PTHrP (Homo sapiens) (UniProt P12272)
[2] = biological target: Importin-α IBB (Homo sapiens) (UniProt P52292)
[3] = biological target: hnRNP A1 PY-NLS (Homo sapiens) (UniProt P09651)
[4] = biological target: hnRNP M PY-NLS (Homo sapiens) (UniProt P52272)
hnRNP M PY-NLS (Homo sapiens), sequence (P52272 41-70): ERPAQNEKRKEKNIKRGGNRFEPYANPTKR

Importin-β, sequence (Q14974 whole entry): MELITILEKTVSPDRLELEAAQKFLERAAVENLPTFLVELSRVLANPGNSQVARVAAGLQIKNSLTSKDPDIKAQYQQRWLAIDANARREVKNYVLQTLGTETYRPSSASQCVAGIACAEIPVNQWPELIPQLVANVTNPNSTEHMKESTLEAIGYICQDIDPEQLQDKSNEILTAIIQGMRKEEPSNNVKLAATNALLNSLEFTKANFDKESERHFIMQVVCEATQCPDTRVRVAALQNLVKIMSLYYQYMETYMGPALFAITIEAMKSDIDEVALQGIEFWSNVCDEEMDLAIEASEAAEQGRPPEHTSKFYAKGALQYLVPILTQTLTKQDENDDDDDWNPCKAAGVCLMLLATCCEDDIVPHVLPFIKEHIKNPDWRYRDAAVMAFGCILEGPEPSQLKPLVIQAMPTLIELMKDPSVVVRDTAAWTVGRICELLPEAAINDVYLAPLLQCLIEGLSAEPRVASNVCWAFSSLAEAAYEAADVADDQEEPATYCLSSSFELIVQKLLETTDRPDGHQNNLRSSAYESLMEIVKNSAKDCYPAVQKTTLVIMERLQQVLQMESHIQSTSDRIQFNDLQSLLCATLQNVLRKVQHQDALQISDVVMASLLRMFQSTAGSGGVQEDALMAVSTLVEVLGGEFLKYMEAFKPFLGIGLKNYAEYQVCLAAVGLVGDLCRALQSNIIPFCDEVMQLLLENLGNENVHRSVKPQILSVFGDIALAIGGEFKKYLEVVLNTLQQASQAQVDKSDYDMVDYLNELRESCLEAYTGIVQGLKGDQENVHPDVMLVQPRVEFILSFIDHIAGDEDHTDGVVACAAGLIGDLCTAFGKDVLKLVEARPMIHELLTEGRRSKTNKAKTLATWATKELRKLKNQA
Kapβ2, sequence (Q92973 whole entry): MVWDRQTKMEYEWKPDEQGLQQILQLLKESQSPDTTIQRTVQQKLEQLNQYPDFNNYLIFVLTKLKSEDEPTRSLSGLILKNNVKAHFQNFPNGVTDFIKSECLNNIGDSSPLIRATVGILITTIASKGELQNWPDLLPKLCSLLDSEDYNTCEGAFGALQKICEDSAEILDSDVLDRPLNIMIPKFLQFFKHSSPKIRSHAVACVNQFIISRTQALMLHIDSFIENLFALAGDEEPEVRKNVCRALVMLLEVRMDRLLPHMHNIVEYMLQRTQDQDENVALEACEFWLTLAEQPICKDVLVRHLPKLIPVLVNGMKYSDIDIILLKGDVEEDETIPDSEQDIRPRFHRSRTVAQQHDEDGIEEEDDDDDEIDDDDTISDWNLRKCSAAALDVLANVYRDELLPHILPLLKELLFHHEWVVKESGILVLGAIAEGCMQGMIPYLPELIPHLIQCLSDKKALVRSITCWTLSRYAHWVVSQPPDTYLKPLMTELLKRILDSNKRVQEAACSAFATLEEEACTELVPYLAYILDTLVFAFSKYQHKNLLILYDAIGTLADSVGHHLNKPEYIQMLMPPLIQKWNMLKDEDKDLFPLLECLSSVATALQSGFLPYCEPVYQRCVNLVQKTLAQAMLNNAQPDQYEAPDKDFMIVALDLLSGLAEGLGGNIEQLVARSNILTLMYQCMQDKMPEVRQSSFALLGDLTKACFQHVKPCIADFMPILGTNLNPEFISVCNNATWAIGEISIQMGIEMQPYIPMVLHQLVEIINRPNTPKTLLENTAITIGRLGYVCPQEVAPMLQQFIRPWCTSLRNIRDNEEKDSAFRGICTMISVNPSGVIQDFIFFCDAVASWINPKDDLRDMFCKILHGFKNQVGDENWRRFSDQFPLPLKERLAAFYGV
PTHrP (Homo sapiens), sequence (P12272 37-72): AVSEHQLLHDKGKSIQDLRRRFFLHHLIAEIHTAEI
Snurportin1 IBB (Homo sapiens), sequence (O95149 8-76): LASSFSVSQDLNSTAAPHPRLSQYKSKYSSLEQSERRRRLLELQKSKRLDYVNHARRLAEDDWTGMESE
hnRNP A1 PY-NLS (Homo sapiens), sequence (P09651 320-357): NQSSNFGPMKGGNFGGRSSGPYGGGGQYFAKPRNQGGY

## Importin-β (from UniProt Q14974)
[1]
  Kd: 2 nM
PTHrP (Homo sapiens)
  Kd: 2 nM
[2]
  Kd: 2 nM

## Kapβ2 (from UniProt Q92973)
[3]
  Kd: 42 nM
[4]
  Kd: 10 nM
